Measured values: patent US20250215100A1 (HARBOUR BIOMED SHANGHAI, published 2025)

B1: PR003379 (antibody, human IgG2, kappa)
heavy: QVQLVQSGAEVKKPGASVKVSCKASGYTFAGYYMYWVRQAPGQGLEWMGWINPDSGAPTYAQKFQGRVTMTRDTSISTAYMELSRLRSDDTAVYYCAREKIYYGSGNYYPSFDYWGQGTLVTVSSASTKGPSVFPLAPCSRSTSESTAALGCLVKDYFPEPVTVSWNSGALTSGVHTFPAVLQSSGLYSLSSVVTVPSSNFGTQTYTCNVDHKPSNTKVDKTVERKCCVECPPCPAPPVAGPSVFLFPPKPKDTLMISRTPEVTCVVVDVSHEDPEVQFNWYVDGVEVHNAKTKPREEQFNSTFRVVSVLTVVHQDWLNGKEYKCKVSNKGLPAPIEKTISKTKGQPREPQVYTLPPSREEMTKNQVSLTCLVKGFYPSDIAVEWESNGQPENNYKTTPPMLDSDGSFFLYSKLTVDKSRWQQGNVFSCSVMHEALHNHYTQKSLSLSPGK
light: DIQLTQSPSFLSASVGDRVTITCRASQGISSYLAWYQQKPGKAPKLLIYAASTLQSGVPSRFSGSGSGTEFTLTISSLQPEDFATYYCQQLNSYPWTFGQGTKVEIKRTVAAPSVFIFPPSDEQLKSGTASVVCLLNNFYPREAKVQWKVDNALQSGNSQESVTEQDSKDSTYSLSSTLTLSKADYEKHKVYACEVTHQGLSSPVTKSFNRGEC
notes: Fully human recombinant IgG2, kappa light chain; from Harbour H2L2 mice; also called 18C4A12-1B1 (clone No.)
B2: PR001028 (Selicrelumab) (antibody, human IgG2, kappa, V domains shown)
VH: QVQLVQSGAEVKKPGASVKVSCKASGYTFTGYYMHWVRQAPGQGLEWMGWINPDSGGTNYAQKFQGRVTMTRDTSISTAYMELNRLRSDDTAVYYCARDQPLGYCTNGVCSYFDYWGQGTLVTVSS
VL: DIQMTQSPSSVSASVGDRVTITCRASQGIYSWLAWYQQKPGKAPNLLIYTASTLQSGVPSRFSGSGSGTDFTLTISSLQPEDFATYYCQQANIFPLTFGGGTKVEIKR
notes: CD40 positive control antibody
B3: PR001306 (CDX-1140) (antibody, human IgG2, kappa, V domains shown)
VH: QVQLVESGGGVVQPGKSLRLSCAASGFTFSSNGIHWVRQAPGKGLEWVAVIWSDGSNKFYADSVKGRFTISRDNSKNTLYLQMNSLRAEDTAVYYCARASGSGSYYNFFDYWGQGTLVTVSS
VL: EIVMTQSPATLSVSPGERATLSCRASQSVRSNLAWYQQKPGQAPRLLIYGASTRATGIPARFSGSGSGTEFTLTINSLQSEDFAVYYCQQHNKWITFGQGTRLEIKR
notes: as for B2
B4: PR001304 (APX005M) (antibody, human IgG1, kappa)
heavy: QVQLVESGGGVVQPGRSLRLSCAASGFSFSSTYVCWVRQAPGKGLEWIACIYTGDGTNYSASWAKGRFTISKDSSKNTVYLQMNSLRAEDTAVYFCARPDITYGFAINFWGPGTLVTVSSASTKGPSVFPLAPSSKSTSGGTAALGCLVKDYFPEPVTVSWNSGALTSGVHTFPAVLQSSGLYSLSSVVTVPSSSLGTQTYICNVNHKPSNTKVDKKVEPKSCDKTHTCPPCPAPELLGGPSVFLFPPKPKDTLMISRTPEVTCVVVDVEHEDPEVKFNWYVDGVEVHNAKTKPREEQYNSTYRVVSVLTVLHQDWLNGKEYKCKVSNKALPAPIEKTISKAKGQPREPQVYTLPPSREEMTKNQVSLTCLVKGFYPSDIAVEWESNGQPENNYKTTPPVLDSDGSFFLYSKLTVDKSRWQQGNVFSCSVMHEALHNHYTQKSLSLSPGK
light: DIQMTQSPSSLSASVGDRVTIKCQASQSISSRLAWYQQKPGKPPKLLIYRASTLASGVPSRFSGSGSGTDFTLTISSLQPEDVATYYCQCTGYGISWPIGGGTKVEIKRTVAAPSVFIFPPSDEQLKSGTASVVCLLNNFYPREAKVQWKVDNALQSGNSQESVTEQDSKDSTYSLSSTLTLSKADYEKHKVYACEVTHQGLSSPVTKSFNRGEC
notes: as for B2

target: T1, cynomolgus monkey CD40 on cells (cynomolgus monkey, UniProt G7PG38 21-278); assay: FACS, CHO-K1/cyCD40 cells
T1 construct: also called cyCD40; CHO-K1/cyCD40
Description: (§1) Flow cytometry (FACS) was used to detect the binding ability of the CD40 antibody to cells, such as, CHO-K1/hCD40 highly expressing human CD40 (constructed by Beijing Kyinno Biotechnology), CHO-K1/cyCD40 highly expressing cynomolgus monkey CD40 (constructed by Beijing Kyinno Biotechnology) and lymphoma cell highly expressing human CD40, Raji (ATCC, #CCL-86). Specifically, the cells were digested and resuspended with complete medium (F-12K for CHO-K1 cells; and RPMI-1640 for Raji cells); and the cells were adjusted to a cell density of 1×10⁶ cells/mL. The cells were seeded in a 96-well V-bottom plate (Corning, #3894) at 100 μL/well, and the antigen binding protein to be tested at 2x final concentration was then added at 100 μL/well and mixed evenly, with the highest final concentration of the antigen binding protein of 300 nM, a total of 8 concentrations, and 5-fold concentration gradient dilution. hIgG (Crownbio, #C0002) was used as a negative control, and the positive control molecule was the molecule in Table 1-5. The cells were incubated at 4° C. for 1 hours in the dark. After the incubation, the cells were rinsed twice by adding pre-chilled PBS at 100 μL/well, and centrifuged at 500 g at 4° C. for 5 minutes, and the supernatant was discarded. Then, a fluorescent secondary antibody (goat anti-human IgG (H+L) secondary antibody, Alexa Fluor® 488 conjugate, Invitrogen, #A11013, 1:1000 dilution) was added at 100 µL/well, and the cells were incubated at 4° C. for 30 minutes in the dark. The cells were washed twice with pre-chilled PBS at 200 μL/well, and centrifuged at 500 g at 4° C. for 5 minutes, and the supernatant was discarded. Finally, the cells were resuspended in pre-chilled PBS at 200 μL/well. The fluorescence signal values were read using a BD FACS CANTOII flow cytometer or ACEA NovoCyte flow cytometer, and the data were processed and analyzed using FlowJo v10 software (FlowJo, LLC).
(§2) Data processing and graphical analysis were performed using GraphPad Prism 8 software. The binding curve of the antibody to the target cell and parameters, such as EC50 value were obtained by four-parameter nonlinear fitting.

T1 sequence (G7PG38 entry or part of it limits assumed): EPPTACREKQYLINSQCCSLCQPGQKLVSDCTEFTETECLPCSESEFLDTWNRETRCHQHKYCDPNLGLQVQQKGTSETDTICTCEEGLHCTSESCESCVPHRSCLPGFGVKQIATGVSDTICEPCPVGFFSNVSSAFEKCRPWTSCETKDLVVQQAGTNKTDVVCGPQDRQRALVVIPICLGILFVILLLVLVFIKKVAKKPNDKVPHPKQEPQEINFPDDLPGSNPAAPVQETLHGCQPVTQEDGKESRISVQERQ

Row | Binder | EC50 [nM] | Maximum MFI [MFI]
1 | B1 | 3.88 | 117000
2 | B2 | 5.97 | 106000
3 | B3 | 5.54 | 39700

target: T2, human CD40 on cells (human, UniProt P25942 21-277); assay: FACS, CHO-K1/hCD40 cells
T2 construct: whole, on cells; The cell line used is named in each row's assay; also called hCD40; TNFRSF5
Description: as §1, §2

T2 sequence (P25942 21-277): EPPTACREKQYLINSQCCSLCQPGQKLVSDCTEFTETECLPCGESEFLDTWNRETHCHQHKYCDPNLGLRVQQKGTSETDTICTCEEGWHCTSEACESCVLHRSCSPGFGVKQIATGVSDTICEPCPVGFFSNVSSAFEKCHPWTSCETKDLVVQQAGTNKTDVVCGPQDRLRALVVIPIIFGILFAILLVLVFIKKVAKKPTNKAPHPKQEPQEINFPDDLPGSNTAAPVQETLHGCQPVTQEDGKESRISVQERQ

Row | Binder | EC50 [nM] | Maximum MFI [MFI]
4 | B1 | 6.34 | 81600
5 | B2 | 10.3 | 85000
6 | B3 | 12.2 | 29200

target: T2, human CD40 on cells; assay: FACS, Raji cells
Description: as §1, §2

Row | Binder | EC50 [nM] | Maximum MFI [MFI]
7 | B1 | 0.0699 | 3700
8 | B2 | 0.484 | 2450
9 | B3 | 0.028 | 614

target: T2, human CD40 on cells; assay: cell-based or functional assay

Row | Binder | EC50 (nM), crosslinked (CHO-K1/hCD32B), HEK293-hCD40-NFkB reporter [nM] | EC50 (nM), uncrosslinked, HEK293-hCD40-NFkB reporter [nM] | Maximum RLU, crosslinked (CHO-K1/hCD32B), HEK293-hCD40-NFkB reporter [RLU] | Maximum RLU, uncrosslinked, HEK293-hCD40-NFkB reporter [RLU] | RLU fold (crosslinked/uncrosslinked) [fold]
10 | B1 | 0.178 | 0.369 | 19700 | 8250 | 2.38
11 | B2 | 0.0413 | 0.163 | 17000 | 13400 | 1.28
12 | B4 | 0.042 | 0.355 | 23200 | 11900 | 1.95
13 | B3 | 0.0506 | 0.0371 | 22600 | 20000 | 1.13

target: T2, human CD40 on cells; assay: FACS, inhibition of human CD40L-his binding to CHO-K1/hCD40 cells
Description: To detect the effect of CD40 antibodies on the binding of CD40 to CD40L, CHO-K1/hCD40 cells were plated at 2×10⁵/well or 100 μL/well into a 96-well plate (Corning, #3799) and centrifuged, and the supernatant was taken and the dilution solution of the antigen binding protein to be tested was added at 50 μL/well with an initial concentration of 500 nM, 5-fold concentration dilution and a total of 8 concentrations. 20 μg/mL of human CD40L-his protein (Sino biological, #10239-H08E) was added at 50 μL/well, the cells were incubated at 4° C. for 1 hour and then washed 3 times with FACS buffer (1×PBS with 2% FBS). 1:400 diluted anti-histidine tag secondary antibody (GenScript, #A01800) was added, and the cells were incubated at 4° C. for 1 hour, then washed 2 times with FACS buffer, and resuspended in pre-chilled PBS. The fluorescence signal values were read using a BD FACS CANTOII flow cytometer or ACEA NovoCyte flow cytometer, and the data were processed and analyzed using FlowJo v10 software (FlowJo, LLC).
Data processing and graphical analysis were performed using GraphPad Prism 8 software. The curve of the antibody concentration-dependent inhibition rate and parameters, such as IC50 value were obtained by four-parameter nonlinear fitting.

Row | Binder | IC50 [nM] | Maximum inhibition rate (%)
14 | B1 | 17 | 41.9
15 | B4 | 10 | 26
16 | B3 | 4.4 | 24

target: T3, human CD40 protein (human, UniProt P25942 21-193, limits assumed); assay: BLI (Octet Red 96e), antibody captured on AHC sensor, human CD40 protein in solution, 1:1 global fit
T3 construct: the construct is not described
Description: To detect the affinity of CD40 antibodies for antigens such as human CD40 protein, the binding kinetics between antigen and antibody was analyzed using an Octet Red 96e (Fortebio) molecular interaction analyzer by biolayer interferometry (BLI) technique.
For determining the affinity of antibodies for antigens, the rotary speed of the sensor was set at 1000 rpm. […] The AHC sensors were finally regenerated by immersing in a 10 mM glycine-hydrochloric acid solution with pH 1.5 to elute the protein bound to the sensors.
For data analysis using Octet Data Analysis software (Fortebio, version 11.0), 0 nM well was used as the reference well, reference subtraction was performed, “1:1 Global fitting” method was selected for data fitting, the kinetic parameters of the binding of the antigen to the CD40 antibodies were calculated, and the kon (1/Ms) value, kdis (1/s) value and KD (M) value were obtained.

T3 sequence (P25942 21-193 limits assumed): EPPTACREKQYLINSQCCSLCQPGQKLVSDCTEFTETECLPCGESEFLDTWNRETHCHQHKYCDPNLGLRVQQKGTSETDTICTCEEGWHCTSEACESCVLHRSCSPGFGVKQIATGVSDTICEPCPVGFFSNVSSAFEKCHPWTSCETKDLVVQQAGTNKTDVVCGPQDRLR

Row | Binder | Kd [nM] | koff [s⁻¹] | kon [M⁻¹ s⁻¹]
17 | B1 | 0.138 | 0.000144 | 1.04e+06
18 | B2 | 4.5 | 0.00048 | 107000
19 | B4 | 7.14 | 0.00264 | 369000
20 | B3 | 0.525 | 0.00057 | 1.09e+06
